Where a chain is given by its changes, count along the chain named.
T1: Mos-1 transposase QY (Drosophila mauritiana, UniProt Q7JQ07 SEQ:1-345, Q91R,Y237C)
T1 sequence: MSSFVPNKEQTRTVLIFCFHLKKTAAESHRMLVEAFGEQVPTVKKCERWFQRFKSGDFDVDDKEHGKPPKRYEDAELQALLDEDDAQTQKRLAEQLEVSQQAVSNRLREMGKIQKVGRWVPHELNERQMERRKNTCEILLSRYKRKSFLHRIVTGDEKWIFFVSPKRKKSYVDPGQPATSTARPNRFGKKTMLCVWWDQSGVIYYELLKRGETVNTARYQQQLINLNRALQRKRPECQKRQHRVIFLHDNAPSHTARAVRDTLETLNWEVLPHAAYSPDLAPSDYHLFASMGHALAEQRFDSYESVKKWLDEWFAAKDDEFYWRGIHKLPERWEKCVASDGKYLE

T2: MBP-Mos-1 transposase (MBP-Tnp) (Drosophila mauritiana, UniProt Q7JQ07 SEQ:1-345)
T2 sequence: T1 sequence with R91Q, C237Y

B1: ITR46 (dsDNA)
DNA 1: TCAGGTGTACAAGTATGAGATGTCGTTT
DNA 2: AAACGACATCTCATACTTGTACACCTGA
B2: ITR40 (dsDNA)
DNA 1: TCAGGTGTACAAGTATGTAATGTCGTTA
DNA 2: TAACGACATTACATACTTGTACACCTGA

Experiments:
Mos-1 transposase QY = molecular target: T1, Mos-1 transposase QY; test: cell_activity; 3T46 transposition in E. coli T5 vs 3T3/WT; conditions: chain copies: 2
Description: Escherichia coli JM109 bacteria were co-transformed with the pBC 3T3 plasmid (comprising a transposition reporter 2 ITR 3′ mariner-like element and the chloramphenicol resistance gene) and with the inducible vector encoding for the transposase (pKK-Tnp or pMal-Tnp) comprising the ampicillin resistance gene. The bacteria selection was performed on ampicillin (100 μg/ml) and chloramphenicol in order to verify the presence of the two plasmids.
The JM109 bacteria containing both the pBC 3T3 plasmid and the pKK-Tnp (or pMalC2X-Tnp) plasmid were placed in culture for 1 hr at 37° C. in 250 μl of LB. This inoculum was then poured into 5 ml of LB supplemented with 1 mM IPTG. The culture was titrated on LB plates (100 μl of a 1/1000 dilution) and on LB-Tet plates (12.5 μg/ml) (250 μl of the non-diluted culture). The culture induced by IPTG was then cultured for 5 hours at 32° C. (optimal temperature of transposase) under stirring (250 rpm). The bacterial suspension was then titrated on LB plates (100 μl of a 1/250,000 dilution) and on LB-tet plates (100 μl of the undiluted bacterial suspension). The plates were placed at 37° C. overnight. The following day, the colonies were counted on LB and LB-Tet plates, and the transposition frequency (equal to the number of tetracycline bacteria over the number of bacterial per 1 ml of undiluted bacterial suspension) was calculated.
In order to evaluate the transposition efficiency of systems associating a hyperactive transposase and a pseudo-transposon that is also hyperactive, various combinations were tested in the transposition test in bacteria described in part I, paragraph I-B above.

[1] = molecular target: T2, MBP-Mos-1 transposase (MBP-Tnp); test: EMSA; 5 mM MgCl2, 4 C; conditions: tags: N-terminal MBP (pMalC2x); chain copies: 2
Description: The sequences inducing a delay in migration after incubation with Tnp (positive ITRs) were subjected to a further gel retardation with a purified DNA fragment. The ITR/protein complexes were formed in a final volume of 20 μl containing: 40 μg of MBP-Tnp protein, 1 nM of ITR probe, 1 μg of salmon sperm DNA, 2 μl of 50% glycerol, 5 mM of MgCl₂ and 0.5 μM of pRev. The ITRs only were used at a final concentration of 1 nM in a mixture containing 2 μl of 50% glycerol and 17 μl of buffer. The interaction reactions were maintained for 15 minutes at 4° C. before being analysed on polyacrylamide gel.

[2] = molecular target: T2, MBP-Mos-1 transposase (MBP-Tnp); test: competition; competes with labelled ITR3'; conditions: tags: N-terminal MBP (pMalC2x); chain copies: 2
Description: The principle of these tests is illustrated in FIG. 9. […] The greater the shift, the greater the “improvement” of the ITRSelex sequence with respect to ITR3′. In practice, the transposase fixing reaction is carried out in 20 μl containing 10 mM of Tris pH9 buffer, 0.5 mM of DDT, 5 mM MgCl₂, 5% (vol/vol) of glycerol, 1 μg of herring sperm DNA and 100 ng of BSA, in the presence of 15 nM of radiolabelled ITR3′ and non-radiolabelled ITRSelex. The non-radiolabelled ITRSelex concentrations tested were 0 nM, 15 nM, 75 nM, 150 nM, 300 nM, 750 nM, 1500 nM.

Binder | activity (Mos-1 transposase QY) | binding result [1] | binding result [2]
B1 | 1.7 fold | binds | –
B2 | – | – | binds

Reference: US20100291682, “SYSTEM FOR TRANSPOSING HYPERACTIVE RECOMBINANT DERIVATIVES OF MOS-1 TRANSPOSON” (published 2010)
